Measurements: patent publication US20140072563A1 (Regeneron, published 2014)

T1: hErbB3.mFc (soluble dimeric human ErbB3 extracellular domain fused to mouse Fc) (human)
T1 construct: called dimeric
T1 chain: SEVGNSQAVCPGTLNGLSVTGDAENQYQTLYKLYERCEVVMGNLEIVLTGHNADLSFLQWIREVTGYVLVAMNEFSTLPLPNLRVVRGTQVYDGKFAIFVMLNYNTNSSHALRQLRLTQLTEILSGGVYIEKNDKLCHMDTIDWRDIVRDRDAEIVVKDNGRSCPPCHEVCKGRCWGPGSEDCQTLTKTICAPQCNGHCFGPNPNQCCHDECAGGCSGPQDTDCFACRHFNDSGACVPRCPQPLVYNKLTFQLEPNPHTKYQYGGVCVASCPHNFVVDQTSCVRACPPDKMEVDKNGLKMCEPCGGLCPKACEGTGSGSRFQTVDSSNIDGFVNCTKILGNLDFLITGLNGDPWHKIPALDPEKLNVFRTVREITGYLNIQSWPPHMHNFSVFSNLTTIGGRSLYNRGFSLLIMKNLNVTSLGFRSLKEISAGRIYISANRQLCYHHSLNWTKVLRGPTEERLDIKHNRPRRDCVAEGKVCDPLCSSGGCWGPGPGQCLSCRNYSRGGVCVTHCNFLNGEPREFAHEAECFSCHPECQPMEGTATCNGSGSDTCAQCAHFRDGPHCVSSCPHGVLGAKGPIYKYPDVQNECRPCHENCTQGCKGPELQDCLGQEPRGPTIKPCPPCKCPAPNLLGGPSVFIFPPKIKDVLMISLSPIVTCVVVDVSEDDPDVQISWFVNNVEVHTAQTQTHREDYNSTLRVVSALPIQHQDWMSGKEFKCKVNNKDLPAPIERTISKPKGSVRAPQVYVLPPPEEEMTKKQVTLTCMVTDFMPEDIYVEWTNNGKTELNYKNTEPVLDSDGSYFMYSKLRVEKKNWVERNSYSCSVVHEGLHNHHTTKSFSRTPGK


How the values were obtained:
[1] = molecular target: T1, hErbB3.mFc (soluble dimeric human ErbB3 …); experiment: SPR (Biacore), 25 C, mAb capture format
Experimental: (§1) (Tables 2-4). Measurements were conducted on a Biacore 2000 or T100 instrument. […] Kinetic association (kₐ) and dissociation (kd) rate constants were determined by processing and fitting the data to a 1:1 binding model using Scrubber 2.0 curve fitting software.

[2] = molecular target: T2, hErbB3.mmh (soluble monomeric human ErbB3 extracellular domain with C-terminal myc-myc-hexahistidine tag) (human, UniProt P21860 20-642); experiment: SPR (Biacore), 25 C, mAb capture format
Experimental: as §1

[3] = molecular target: T1, hErbB3.mFc (soluble dimeric human ErbB3 …); experiment: SPR (Biacore), 37 C, mAb capture format
Experimental: as §1

[4] = molecular target: T2, hErbB3.mmh (soluble monomeric human …); experiment: SPR (Biacore), 37 C, mAb capture format
Experimental: as §1

Row | Kd [1] [nM] | T½ [1] [h] | koff [1] [s⁻¹] | kon [1] [M⁻¹ s⁻¹] | Kd [2] [nM] | T½ [2] [h] | koff [2] [s⁻¹] | kon [2] [M⁻¹ s⁻¹] | Kd [3] [nM] | T½ [3] [h] | koff [3] [s⁻¹] | kon [3] [M⁻¹ s⁻¹] | Kd [4] [nM] | T½ [4] [h] | koff [4] [s⁻¹] | kon [4] [M⁻¹ s⁻¹] | Binder
1 | 0.000355 | 44.4 | 4.33e-06 | 1.22e+07 | 0.051 | 1 | 0.000192 | 3.8e+06 | 0.00189 | 5.43 | 3.55e-05 | 1.87e+07 | 0.167 | 0.183 | 0.00108 | 6.49e+06 | H4H1821N (antibody, V domains shown, Human IgG4 Fc (H4H prefix); same variable domains as H2M1821N) VH: EVQLVESGGGLVQPGRSLRLSCAASGFTFDDYAMHWVRQAPGKGLEWVSSISWNSGSIGYADSVKGRFTISRDNAKNSLYLQMNSLKPEDTALYYCTKDTDYGDYLDAFDIWGQGTMVAVAS VL: not shown
2 | 0.000943 | 12.5 | 1.54e-05 | 1.64e+07 | 0.0435 | 0.55 | 0.000351 | 8.1e+06 | 0.00153 | 3.43 | 5.62e-05 | 3.68e+07 | 0.129 | 0.117 | 0.00156 | 1.21e+07 | H4H1819N (antibody, V domains shown, Human IgG4 Fc (H4H prefix); same variable domains as H1M1819N) VH: EVQLVESGGGVVRPGGSLRLSCAASGFTFDDYAMHWVRQAPGKGLEWVAGISWNSGSIDYADSVKGRFTISRDNAKNSLYLQMNSLRAGDTALYYCAKDILDLDYYGLDVWGQGTTVTVSS VL: DIQMTQSPSSLSASVGDRVTITCRASQDISSYLAWYQQKPGKVPNLLIYDASSLQSGVPSRFSGSGSGTDFTLTLSSLQPEDFASYYCQNYNSAPYTFGQGTKLEIK
